Test system: Bacillus subtilis
Experiment: cleaved RNA product abundance (RNA/gDNA barcode ratio) relative to median wild-type variant (ratio to wild type); higher = more accumulation of the downstream cleavage product
Settings: cleavage site: cggR-gapA (positions -7 to +36 mutated)
Method in brief: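 Reporter mRNAs (truncated aprE or tetM) carrying barcoded, mutagenized RNase Y cleavage-site windows were made from oligos with a 9% error rate and integrated into the B. subtilis chromosome. Cultures grew in LB at 37°C from OD600 0.0003 to 0.3. Cleaved RNA was gel-selected, reverse transcribed and barcode-sequenced alongside genomic DNA barcodes, with UMI collapsing. Cleaved product abundance is the RNA:gDNA barcode ratio per variant, scaled to the median wild-type variant.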

[1] = experiment (reporter, strain, medium): exp 2b: truncated aprE reporter, strain BJT200
[2] = experiment (reporter, strain, medium): exp 4a: truncated aprE reporter, strain BJT201 with 2% xylose (RNase J1 expressed)
[3] = experiment (reporter, strain, medium): exp 6: tetM reporter, strain 168

Row | Sequence | cleaved RNA product abundance [1] | cleaved RNA product abundance [2] | cleaved RNA product abundance [3]
1 | ACAGACGAAGGAGCCGCAAAGAAGTTATTAAGGGATGAATAACCACTCAATATAAATATCTCTCACTTATTTAAA | 0.0866 | 0.17 | –
2 | ACAGACGAAGGAGCCGCAAAGAAGTTATTAAGGGATGAATAACCCCTAAATATAAATATCTCTCACTTATTTAAA | – | 0.542 | –
3 | ACAGACGAAGGAGCCGCAAAGAAGTTATTAAGGGATGAATAACCCCTCAAAATAAATATCTCTCACTTATTTAAA | 0.208 | – | –
4 | ACAGACGAAGGAGCCGCAAAGAAGTTATTAAGGGATGAATAACCCCTCAATATAAATATCTCTCACTTATTTAAA | 0.56 | 0.609 | 0.408
5 | ACAGACGAAGGAGCCGCAAAGAAGTTATTAAGGGATGAATAACCCCTCAATATACATATCTCTCACTTATTTAAA | – | 0.37 | –
6 | ACAGACGAAGGAGCCGCAAAGAAGTTATTAAGGGATGAATAACCCCTCAATATATATATCTCTCACTTATTTAAA | – | 0.739 | –
7 | ACAGACGAAGGAGCCGCAAAGAAGTTATTAAGGGATGAATAACCCCTCAATCTAAATATCTCTCACTTATTTAAA | – | 0.0932 | –
8 | ACAGACGAAGGAGCCGCAAAGAAGTTATTAAGGGATGAATAACCCCTCCATATAAATATCTCTCACTTATTTAAA | – | 0.178 | –
9 | ACAGACGAAGGAGCCGCAAAGAAGTTATTAAGGGATGAATAACCCCTCTATATAAATATCTCTCACTTATTTAAA | – | 0.229 | –
10 | ACAGACGAAGGAGCCGCAAAGAAGTTATTAAGGGATGAATAACCCCTTAATATAAATATCTCTCACTTATTTAAA | 1.34 | 0.505 | –
11 | ACAGACGAAGGAGCCGCAAAGAAGTTATTAAGGGATGAATAACCCTTCAATATAAATATCTCTCACTTATTTAAA | – | 0.346 | –
12 | ACAGACGAAGGAGCCGCAAAGAAGTTATTAAGGGATGAATAACCTCTCAATATAAATATCTCTCACTTATTTAAA | – | 0.151 | –
13 | ACAGACGAAGGAGCCGCAAAGAAGTTATTAAGGGATGAATAACTCCTCAATATAAATATCTCTCACTTATTTAAA | 0.14 | 0.149 | –
14 | ACAGACGAAGGAGCCGCAAAGAAGTTATTAAGGGATGAATAAGCCCTAAATATAAATATCTCTCACTTATTTAAA | 0.342 | 0.528 | –
15 | ACAGACGAAGGAGCCGCAAAGAAGTTATTAAGGGATGAATAAGCCCTCAAAATAAATATCTCTCACTTATTTAAA | – | 0.261 | –
16 | ACAGACGAAGGAGCCGCAAAGAAGTTATTAAGGGATGAATAAGCCCTCAAGATAAATATCTCTCACTTATTTAAA | – | 0.176 | –
17 | ACAGACGAAGGAGCCGCAAAGAAGTTATTAAGGGATGAATAAGCCCTCAATATAAATAGCTCTCACTTATTTAAA | – | 0.406 | –
18 | ACAGACGAAGGAGCCGCAAAGAAGTTATTAAGGGATGAATAAGCCCTCAATATAAATATCTCTCACTTATTTAAA | 0.683 | 0.634 | 0.775
19 | ACAGACGAAGGAGCCGCAAAGAAGTTATTAAGGGATGAATAAGCCTTCAATATAAATATCTCTCACTTATTTAAA | – | 0.171 | –
20 | ACAGACGAAGGAGCCGCAAAGAAGTTATTAAGGGATGAATAATAACTCAATATAAATATCTCTCACTTATTTAAA | 0.0902 | 0.128 | –
21 | ACAGACGAAGGAGCCGCAAAGAAGTTATTAAGGGATGAATAATACATCAATATAAATATCTCTCACTTATTTAAA | – | 0.0848 | –
22 | ACAGACGAAGGAGCCGCAAAGAAGTTATTAAGGGATGAATAATACCACAATATAAATATCTCTCACTTATTTAAA | 0.0894 | 0.0911 | –
23 | ACAGACGAAGGAGCCGCAAAGAAGTTATTAAGGGATGAATAATACCCCAATATAAATATCTCTCACTTATTTAAA | – | 0.149 | –
24 | ACAGACGAAGGAGCCGCAAAGAAGTTATTAAGGGATGAATAATACCTAAATATAAATATCTCTCACTTATTTAAA | 0.12 | 0.132 | –
25 | ACAGACGAAGGAGCCGCAAAGAAGTTATTAAGGGATGAATAATACCTCAAAATAAATATCTCTCACTTATTTAAA | – | 0.155 | –
26 | ACAGACGAAGGAGCCGCAAAGAAGTTATTAAGGGATGAATAATACCTCAAGATAAATATCTCTCACTTATTTAAA | 0.102 | 0.124 | –
27 | ACAGACGAAGGAGCCGCAAAGAAGTTATTAAGGGATGAATAATACCTCAATACAAATATCTCTCACTTATTTAAA | – | 0.0658 | –
28 | ACAGACGAAGGAGCCGCAAAGAAGTTATTAAGGGATGAATAATACCTCAATATAAAAATCTCTCACTTATTTAAA | 0.144 | 0.179 | –
29 | ACAGACGAAGGAGCCGCAAAGAAGTTATTAAGGGATGAATAATACCTCAATATAAACATCTCTCACTTATTTAAA | – | 0.108 | –
30 | ACAGACGAAGGAGCCGCAAAGAAGTTATTAAGGGATGAATAATACCTCAATATAAATAACTCTCACTTATTTAAA | 0.144 | 0.0774 | –

Reference: the supplement of paper PMC11780869
